Biological target: SV40 large T (SV40), P03070
Test: biotinylated row protein on streptavidin beads, 35S column protein counted
Settings: remark: other sources report otherwise

B1: p53, P02340 1-390 (protein)
chain: MTAMEESQSDISLELPLSQETFSGLWKLLPPEDILPSPHCMDDLLLPQDVEEFFEGPSEALRVSGAPAAQDPVTETPGPVAPAPATPWPLSSFVPSQKTYQGNYGFHLGFLQSGTAKSVMCTYSPPLNKLFCQLAKTCPVQLWVSATPPAGSRVRAMAIYKKSQHMTEVVRRCPHHERCSDGDGLAPPQHLIRVEGNLYPEYLEDRQTFRHSVVVPYEPPEAGSEYTTIHYKYMCNSSCMGGMNRRPILTIITLEDSSGNLLGRDSFEVRVCACPGRDRRTEEENFRKKEVLCPELPPGSAKRALPTCTSASPPQKKKPLDGEYFTLKIRGRKRFEMFRELNEALELKDAHATEESGDSRAHSSYLKTKKGQSTSRHKKTMVKKVGPDSD
modifications: here or on the partner: 35S-methionine label or biotinylated lysine, by its role in the assay
RI (c.p.m.): 884 c.p.m.

From patent US7122382
